For two molecules, Kd results are on record in PMC6783348.

In this series the target is CD8a extracellular domain (Homo sapiens, UniProt P01732 22-182). Briefly: BLI.
Chain of CD8a extracellular domain (P01732 22-182): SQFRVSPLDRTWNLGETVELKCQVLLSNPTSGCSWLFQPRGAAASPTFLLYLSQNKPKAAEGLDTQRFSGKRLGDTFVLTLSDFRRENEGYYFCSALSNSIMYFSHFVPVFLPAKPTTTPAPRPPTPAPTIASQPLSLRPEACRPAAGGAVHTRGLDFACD

B1: A3 (structured_DNA)
DNA: ATCCAGAGTGACGCAGCAACAGAGGTGTAGAAGTACACGTGAACAAGCTTGAAATTGTCTCTGACAGAGGTGGACACGGTGGCTTAGT
In turn, B1 gave a dissociation constant (Kd) of 14.7 ± 0.1 nM.

B2: A8 (structured_DNA)
DNA: ATCCAGAGTGACGCAGCAGCTCGATCGTATAGCCGTGACGCAGCTTGAAATGGGATCGCGTCCACAGTTTTGGACACGGTGGCTTAGT
Turning to B2, the affinity, expressed as Kd, was 5.59 ± 0.11 nM.
